# Measurements as given in patent publication US20200199647A1 (published 2020).
# Experiments:
# [1] = target: T1, PP1c (human PP1cα amino acids 7-330, N-terminal Thio6/His6 tag) (human, UniProt P62136 7-330); test: thermophoresis (MST), labelled PP1c
# T1 construct: range 7-330; Recombinant, from E. coli with GroEL/GroES and MnCl2; In thermophoresis it was labelled with the Monolith NT Red-NHS kit; also called protein phosphatase 1c; Thio6/His6-PP1c
# [2] = target: T1, PP1c (human PP1cα amino acids 7-330, …); test: thermophoresis, labelled PP1c, unlabelled fragment titrated
# T1 sequence (P62136 other isoform, or with tags, fused parts or gaps): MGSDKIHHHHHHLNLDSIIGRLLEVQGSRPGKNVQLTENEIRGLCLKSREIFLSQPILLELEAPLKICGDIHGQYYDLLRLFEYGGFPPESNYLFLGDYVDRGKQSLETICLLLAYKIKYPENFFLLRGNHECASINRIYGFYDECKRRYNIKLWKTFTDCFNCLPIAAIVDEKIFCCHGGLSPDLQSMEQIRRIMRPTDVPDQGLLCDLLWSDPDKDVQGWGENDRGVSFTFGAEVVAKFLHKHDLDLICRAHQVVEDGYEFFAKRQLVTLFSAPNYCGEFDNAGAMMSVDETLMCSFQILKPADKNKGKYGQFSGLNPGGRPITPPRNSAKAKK
Binder,binding result [1],binding result [2]
"R15B^C (human PPP1R15B amino acids 636-698, N-terminal MBP-tag, C-terminal His6-tag) (other, not shown: large carriers, range 636-698; also called R15B^636-698; carboxy-terminal fragment of R15B) VKRKKVTFLEEVTEYYISGDEDRKGPWEEFARDGCRFQKRIQETEDAIGYCLTFEHRERMFNRHHHHHH",binds,–
"R15B^N (human PPP1R15B amino acids 340-635, N-terminal MBP-tag, C-terminal His6-tag) (other, not shown: large carriers, range 340-635; also called R15B^340-635; amino-terminal fragment of R15B) RDNPTQFVPAAGDIPGNTQESTEEKIELLTTEVPLALEEESPSEGCPSSEIPMEKEPGEGRISVVDYSYLEGDLPISARPACSNKLIDYILGGASSDLETSSDPEGEDWDEEAEDDGFDSDSSLSDSDLEQDPEGLHLWNSFCSVDPYNPQNFTATIQTAARIVPEEPSDSEKDLSGKSDLENSSQSGSLPETPEHSSGEEDDWESSADEAESLKLWNSFCNSDDPYNPLNFKAPFQTSGENEKGCRDSKTPSESIVAISECHTLLSCKVQLLGSQESECPDSVQRDVLSGGRHTHHHHHHH",–,no binding
